# Source: ChEMBL document CHEMBL1649237, “IND-6, a highly divergent IND-type metallo-beta-lactamase from Chryseobacterium indologenes strain 597 isolated in Burkina Faso” (2009)
# B1: IND-like metallo-beta-lactamase (Chryseobacterium indologenes), Q6JE29 (protein)
# chain: MKKRIQFFMVSMMLAPMFNAQVKDFVIEPPIKNNLHIYKTFGVFGGKEYSANSVYLVTKKGVVLFDVPWEKAQYQSLMDTIKKRHNLPVIAVFATHSHDDRAGDLSFFNNKGIKTYATSKTNEFLKKDGKATSTEIIKTGKPYRIGGEEFTVDFLGEGHTADNVVVWFPKYNVLDGGCLVKSNSATDLGYIKEANVEQWPITIDKLKAKYSKATLIIPGHDDWKGGGHVEHTLELLNKK
# B2: Metallo-beta-lactamase type 2 (Flavobacterium meningosepticum), O08498 (protein)
# chain: MLKKIKISLILALGLTSLQAFGQENPDVKIEKLKDNLYVYTTYNTFNGTKYAANAVYLVTDKGVVVIDCPWGEDKFKSFTDEIYKKHGKKVIMNIATHSHDDRAGGLEYFGKIGAKTYSTKMTDSILAKENKPRAQYTFDNNKSFKVGKSEFQVYYPGKGHTADNVVVWFPKEKVLVGGCIIKSADSKDLGYIGEAYVNDWTQSVHNIQQKFSGAQYVVAGHDDWKDQRSIQHTLDLINEYQQKQKASN
# B3: Metallo-beta-lactamase IND-2 (Chryseobacterium indologenes), Q9F923 (protein)
# chain: MKKSIQLLMMSMFLSPLINAQVKDFVIEPPVKPNLYLYKSFGVFGGKEYSANAVYLTTKKGVVLFDVPWQKEQYQTLMDTIQKRHHLPVIAVFATHSHDDRAGDLSFYNQKGIKTYATAKTNELLKKDGKATSTEIIKTGKPYKIGGEEFMVDFLGEGHTVDNVVVWFPKYKVLDGGCLVKSRTATDLGYTGEANVKQWPETMRKLKTKYAQATLVIPGHDEWKGGGHVQHTLDLLDKN
# B4: Metallo-beta-lactamase IND-6 (Chryseobacterium indologenes), Q08I33 (protein)
# chain: MKRRIQFFMVSMMLTPLFSAQVKDFVIEPPIKKNLYIYKTFGVFGGKEYSANSVYLVTKTGVVLFDVPWEKAQYQSLMDTIKKRHNLPVVAVFATHSHDDRAGDLSFFNNKGIKTYATPKTNQFLKRDGKATSTELIKPGKPYRFGGEEFVVDFLGEGHTADNVVVWFPKYKVLDGGCLVKSNSATDLGYIKEANLEQWPKTMHKLKTKYSEAVLIIPGHDEWKGGGHVEHTLELLDKK
# Assays:
# [1] = substrate: CC1(C)S[C@@H]2[C@H](NC(=O)C(C(=O)O)c3ccccc3)C(=O)N2[C@H]1C(=O)O; assay: (§1) Ratio of Kcat to Km for Chryseobacterium indologenes 597 metallo-beta-lactamase […] expressed in Escherichia coli DH5alpha by Michaelis-Menten equation
# [2] = substrate: CC1(C)S[C@@H]2[C@H](NC(=O)Cc3ccccc3)C(=O)N2[C@H]1C(=O)O; assay: as §1
# [3] = substrate: CO/N=C(\C(=O)N[C@@H]1C(=O)N2C(C(=O)O)=C(COC(C)=O)CS[C@H]12)c1csc(N)n1; assay: as §1
# [4] = substrate: C[C@@H](O)[C@H]1C(=O)N2C(C(=O)O)=C(SCCNC=N)C[C@H]12; assay: as §1
# [5] = substrate: C[C@@H](O)[C@H]1C(=O)N2C(C(=O)O)=C(S[C@@H]3CN[C@H](C(=O)N(C)C)C3)[C@H](C)[C@H]12; assay: as §1
# [6] = substrate: CC(=O)OCC1=C(C(=O)O)N2C(=O)[C@@H](NC(=O)Cc3cccs3)[C@H]2SC1; assay: (§2) Ratio of Kcat to Km for Chryseobacterium meningosepticum CCUG 4310 beta-lactamase BlaB1 expressed in Escherichia coli DH5alpha by Michaelis-Menten equation; conditions: Elizabethkingia meningoseptica
# [7] = substrate: CC(C)(O/N=C(\C(=O)N[C@@H]1C(=O)N2C(C(=O)[O-])=C(C[n+]3ccccc3)CS[C@H]12)c1csc(N)n1)C(=O)O; assay: as §2; conditions: Elizabethkingia meningoseptica
# [8] = substrate: CC1(C)S[C@@H]2[C@H](NC(=O)C(C(=O)O)c3ccccc3)C(=O)N2[C@H]1C(=O)O; assay: as §2; conditions: Elizabethkingia meningoseptica
# [9] = substrate: CC1(C)S[C@@H]2[C@H](NC(=O)Cc3ccccc3)C(=O)N2[C@H]1C(=O)O; assay: as §2; conditions: Elizabethkingia meningoseptica
# [10] = substrate: CO/N=C(\C(=O)N[C@@H]1C(=O)N2C(C(=O)O)=C(COC(C)=O)CS[C@H]12)c1csc(N)n1; assay: as §2; conditions: Elizabethkingia meningoseptica
# [11] = substrate: CO/N=C(\C(=O)N[C@@H]1C(=O)N2C(C(=O)O)=C(COC(N)=O)CS[C@H]12)c1ccco1; assay: as §2; conditions: Elizabethkingia meningoseptica
# [12] = substrate: CO/N=C(\C(=O)N[C@@H]1C(=O)N2C(C(=O)[O-])=C(C[N+]3(C)CCCC3)CS[C@H]12)c1csc(N)n1; assay: as §2; conditions: Elizabethkingia meningoseptica
# [13] = substrate: C[C@@H](O)[C@H]1C(=O)N2C(C(=O)O)=C(SCCNC=N)C[C@H]12; assay: as §2; conditions: Elizabethkingia meningoseptica
# [14] = substrate: C[C@@H](O)[C@H]1C(=O)N2C(C(=O)O)=C(S[C@@H]3CN[C@H](C(=O)N(C)C)C3)[C@H](C)[C@H]12; assay: as §2; conditions: Elizabethkingia meningoseptica
# [15] = substrate: O=C(Cc1cccs1)N[C@@H]1C(=O)N2C(C(=O)O)=C(/C=C/c3ccc([N+](=O)[O-])cc3[N+](=O)[O-])CS[C@H]12; assay: as §2; conditions: Elizabethkingia meningoseptica
# [16] = substrate: O=C(Cc1cccs1)N[C@@H]1C(=O)N2C(C(=O)[O-])=C(C[n+]3ccccc3)CS[C@H]12; assay: as §2; conditions: Elizabethkingia meningoseptica
# [17] = substrate: CC(=O)OCC1=C(C(=O)O)N2C(=O)[C@@H](NC(=O)Cc3cccs3)[C@H]2SC1; assay: (§3) Ratio of Kcat to Km for Chryseobacterium indologenes 597 metallo-beta-lactamase IND-2 expressed in Escherichia coli DH5alpha by Michaelis-Menten equation
# [18] = substrate: CC(C)(O/N=C(\C(=O)N[C@@H]1C(=O)N2C(C(=O)[O-])=C(C[n+]3ccccc3)CS[C@H]12)c1csc(N)n1)C(=O)O; assay: as §3
# [19] = substrate: CC1(C)S[C@@H]2[C@H](NC(=O)Cc3ccccc3)C(=O)N2[C@H]1C(=O)O; assay: as §3
# [20] = substrate: CO/N=C(\C(=O)N[C@@H]1C(=O)N2C(C(=O)O)=C(COC(C)=O)CS[C@H]12)c1csc(N)n1; assay: as §3
# [21] = substrate: CO/N=C(\C(=O)N[C@@H]1C(=O)N2C(C(=O)[O-])=C(C[N+]3(C)CCCC3)CS[C@H]12)c1csc(N)n1; assay: as §3
# [22] = substrate: C[C@@H](O)[C@H]1C(=O)N2C(C(=O)O)=C(SCCNC=N)C[C@H]12; assay: as §3
# [23] = substrate: C[C@@H](O)[C@H]1C(=O)N2C(C(=O)O)=C(S[C@@H]3CN[C@H](C(=O)N(C)C)C3)[C@H](C)[C@H]12; assay: as §3
# [24] = substrate: CC(=O)OCC1=C(C(=O)O)N2C(=O)[C@@H](NC(=O)Cc3cccs3)[C@H]2SC1; assay: (§4) Activity at Chryseobacterium indologenes 597 metallo-beta-lactamase IND-6 expressed in Escherichia coli DH5alpha by Michaelis-Menten equation
# [25] = substrate: CC(C)(O/N=C(\C(=O)N[C@@H]1C(=O)N2C(C(=O)[O-])=C(C[n+]3ccccc3)CS[C@H]12)c1csc(N)n1)C(=O)O; assay: as §4
# [26] = substrate: CC1(C)S[C@@H]2[C@H](NC(=O)C(C(=O)O)c3ccccc3)C(=O)N2[C@H]1C(=O)O; assay: as §4
# [27] = substrate: CC1(C)S[C@@H]2[C@H](NC(=O)Cc3ccccc3)C(=O)N2[C@H]1C(=O)O; assay: as §4
# [28] = substrate: CC1(C)S[C@@H]2[C@H](NC(=O)[C@H](N)c3ccc(O)cc3)C(=O)N2[C@H]1C(=O)O; assay: as §4
# [29] = substrate: CC1=C(C(=O)O)N2C(=O)[C@@H](NC(=O)[C@H](N)c3ccccc3)[C@H]2SC1; assay: as §4
# [30] = substrate: CO/N=C(\C(=O)N[C@@H]1C(=O)N2C(C(=O)O)=C(COC(C)=O)CS[C@H]12)c1csc(N)n1; assay: as §4
# [31] = substrate: CO/N=C(\C(=O)N[C@@H]1C(=O)N2C(C(=O)O)=C(COC(N)=O)CS[C@H]12)c1ccco1; assay: as §4
# [32] = substrate: CO/N=C(\C(=O)N[C@@H]1C(=O)N2C(C(=O)[O-])=C(C[N+]3(C)CCCC3)CS[C@H]12)c1csc(N)n1; assay: as §4
# [33] = substrate: C[C@@H](O)[C@H]1C(=O)N2C(C(=O)O)=C(SCCNC=N)C[C@H]12; assay: as §4
# [34] = substrate: C[C@@H](O)[C@H]1C(=O)N2C(C(=O)O)=C(S[C@@H]3CN[C@H](C(=O)N(C)C)C3)[C@H](C)[C@H]12; assay: as §4
# [35] = substrate: O=C(Cc1cccs1)N[C@@H]1C(=O)N2C(C(=O)O)=C(/C=C/c3ccc([N+](=O)[O-])cc3[N+](=O)[O-])CS[C@H]12; assay: as §4
# [36] = substrate: O=C(Cc1cccs1)N[C@@H]1C(=O)N2C(C(=O)[O-])=C(C[n+]3ccccc3)CS[C@H]12; assay: as §4
# [37] = substrate: CC(=O)OCC1=C(C(=O)O)N2C(=O)[C@@H](NC(=O)Cc3cccs3)[C@H]2SC1; assay: (§5) Ratio of Kcat to Km for Chryseobacterium indologenes 597 metallo-beta-lactamase IND-6 expressed in Escherichia coli DH5alpha by Michaelis-Menten equation
# [38] = substrate: CC(C)(O/N=C(\C(=O)N[C@@H]1C(=O)N2C(C(=O)[O-])=C(C[n+]3ccccc3)CS[C@H]12)c1csc(N)n1)C(=O)O; assay: as §5
# [39] = substrate: CC1(C)S[C@@H]2[C@H](NC(=O)C(C(=O)O)c3ccccc3)C(=O)N2[C@H]1C(=O)O; assay: as §5
# [40] = substrate: CC1(C)S[C@@H]2[C@H](NC(=O)Cc3ccccc3)C(=O)N2[C@H]1C(=O)O; assay: as §5
# [41] = substrate: CC1(C)S[C@@H]2[C@H](NC(=O)[C@H](N)c3ccc(O)cc3)C(=O)N2[C@H]1C(=O)O; assay: as §5
# [42] = substrate: CC1=C(C(=O)O)N2C(=O)[C@@H](NC(=O)[C@H](N)c3ccccc3)[C@H]2SC1; assay: as §5
# [43] = substrate: CO/N=C(\C(=O)N[C@@H]1C(=O)N2C(C(=O)O)=C(COC(C)=O)CS[C@H]12)c1csc(N)n1; assay: as §5
# [44] = substrate: CO/N=C(\C(=O)N[C@@H]1C(=O)N2C(C(=O)O)=C(COC(N)=O)CS[C@H]12)c1ccco1; assay: as §5
# [45] = substrate: CO/N=C(\C(=O)N[C@@H]1C(=O)N2C(C(=O)[O-])=C(C[N+]3(C)CCCC3)CS[C@H]12)c1csc(N)n1; assay: as §5
# [46] = substrate: C[C@@H](O)[C@H]1C(=O)N2C(C(=O)O)=C(SCCNC=N)C[C@H]12; assay: as §5
# [47] = substrate: C[C@@H](O)[C@H]1C(=O)N2C(C(=O)O)=C(S[C@@H]3CN[C@H](C(=O)N(C)C)C3)[C@H](C)[C@H]12; assay: as §5
# [48] = substrate: O=C(Cc1cccs1)N[C@@H]1C(=O)N2C(C(=O)O)=C(/C=C/c3ccc([N+](=O)[O-])cc3[N+](=O)[O-])CS[C@H]12; assay: as §5
# [49] = substrate: O=C(Cc1cccs1)N[C@@H]1C(=O)N2C(C(=O)[O-])=C(C[n+]3ccccc3)CS[C@H]12; assay: as §5
protein,measurement,setting,value
B1,kcat/Km,[1],5.3 ×10⁴ /M/s
same,kcat/Km,[2],8.4 ×10⁵ /M/s
same,kcat/Km,[3],3.1 ×10⁴ /M/s
same,kcat/Km,[4],2.4 ×10⁴ /M/s
same,kcat/Km,[5],1.5 ×10⁴ /M/s
B2,kcat/Km,[6],1.6 ×10⁶ /M/s
same,kcat/Km,[7],6.6 ×10³ /M/s
same,kcat/Km,[8],6.1 ×10⁶ /M/s
same,kcat/Km,[9],2.7 ×10⁷ /M/s
same,kcat/Km,[10],7.9 ×10⁵ /M/s
same,kcat/Km,[11],1 ×10⁶ /M/s
same,kcat/Km,[12],2 ×10² /M/s
same,kcat/Km,[13],2 ×10⁶ /M/s
same,kcat/Km,[14],7.6 ×10⁵ /M/s
same,kcat/Km,[15],3.9 ×10⁶ /M/s
same,kcat/Km,[16],1.4 ×10⁵ /M/s
B3,kcat/Km,[17],1.2 ×10⁶ /M/s
same,kcat/Km,[18],4.5 ×10³ /M/s
same,kcat/Km,[19],4.6 ×10⁶ /M/s
same,kcat/Km,[20],9 ×10⁵ /M/s
same,kcat/Km,[21],4.5 ×10² /M/s
same,kcat/Km,[22],5.9 ×10⁵ /M/s
same,kcat/Km,[23],1.8 ×10⁵ /M/s
B4,Km,[24],60 µM
same,kcat,[24],415 s⁻¹
same,Km,[25],22 µM
same,kcat,[25],6 s⁻¹
same,Km,[26],30 µM
same,kcat,[26],210 s⁻¹
same,Km,[27],20 µM
same,kcat,[27],305 s⁻¹
same,Km,[28],85 µM
same,kcat,[28],480 s⁻¹
same,Km,[29],3 µM
same,kcat,[29],19 s⁻¹
same,Km,[30],33 µM
same,kcat,[30],8 s⁻¹
same,Km,[31],23 µM
same,kcat,[31],75 s⁻¹
same,Km,[32],> 300 µM
same,kcat,[32],> 1.2 s⁻¹
same,Km,[33],13 µM
same,kcat,[33],50 s⁻¹
same,Km,[34],145 µM
same,kcat,[34],25 s⁻¹
same,Km,[35],43 µM
same,kcat,[35],115 s⁻¹
same,Km,[36],90 µM
same,kcat,[36],490 s⁻¹
same,kcat/Km,[37],6.9 ×10⁶ /M/s
same,kcat/Km,[38],2.7 ×10⁵ /M/s
same,kcat/Km,[39],7 ×10⁶ /M/s
same,kcat/Km,[40],1.5 ×10⁷ /M/s
same,kcat/Km,[41],5.6 ×10⁶ /M/s
same,kcat/Km,[42],6.3 ×10⁶ /M/s
same,kcat/Km,[43],2.4 ×10⁵ /M/s
same,kcat/Km,[44],3.3 ×10⁶ /M/s
same,kcat/Km,[45],4 ×10³ /M/s
same,kcat/Km,[46],3.8 ×10⁶ /M/s
same,kcat/Km,[47],1.7 ×10⁵ /M/s
same,kcat/Km,[48],2.7 ×10⁶ /M/s
same,kcat/Km,[49],5.4 ×10⁶ /M/s
